Reference: patent publication EP1739090A2 (Biogen Idec MA Inc., dated 2007)

T1: IFNAR2/Fc fusion protein (extracellular domain of the human IFNAR2 receptor chain fused to the hinge, CH2 and … (human, UniProt P48551 27-243))
T1 construct: extracellular domain; Expressed in CHO cells, purified on protein A, captured on plates by mouse anti-human IgG1 mAb CDG5-AA9; also called IFNAR2-ectodomain/Fc fusion protein; IFNAR/Fc; not shown: human IgG1 heavy chain constant region: hinge, CH2 and CH3 domains
T1 sequence (looked up): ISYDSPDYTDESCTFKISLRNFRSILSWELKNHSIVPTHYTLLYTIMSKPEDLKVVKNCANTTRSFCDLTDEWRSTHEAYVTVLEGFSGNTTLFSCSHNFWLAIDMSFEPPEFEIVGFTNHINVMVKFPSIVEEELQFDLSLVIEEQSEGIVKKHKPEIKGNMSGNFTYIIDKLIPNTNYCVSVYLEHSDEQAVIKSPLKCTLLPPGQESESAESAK

T2: type I interferon cell surface receptor complex (IFNAR1/2 complex) expressed on Daudi Burkitt's lymphoma cells (human, UniProt P17181 28-557; P48551 27-515)
T2 construct: whole, on cells; Endogenous receptor of human Daudi cells; both chains together comprise the receptor for interferon-beta; also called IFNAR1/2 cell surface receptor; cognate receptor on Daudi cells
T2 sequence (looked up) 1: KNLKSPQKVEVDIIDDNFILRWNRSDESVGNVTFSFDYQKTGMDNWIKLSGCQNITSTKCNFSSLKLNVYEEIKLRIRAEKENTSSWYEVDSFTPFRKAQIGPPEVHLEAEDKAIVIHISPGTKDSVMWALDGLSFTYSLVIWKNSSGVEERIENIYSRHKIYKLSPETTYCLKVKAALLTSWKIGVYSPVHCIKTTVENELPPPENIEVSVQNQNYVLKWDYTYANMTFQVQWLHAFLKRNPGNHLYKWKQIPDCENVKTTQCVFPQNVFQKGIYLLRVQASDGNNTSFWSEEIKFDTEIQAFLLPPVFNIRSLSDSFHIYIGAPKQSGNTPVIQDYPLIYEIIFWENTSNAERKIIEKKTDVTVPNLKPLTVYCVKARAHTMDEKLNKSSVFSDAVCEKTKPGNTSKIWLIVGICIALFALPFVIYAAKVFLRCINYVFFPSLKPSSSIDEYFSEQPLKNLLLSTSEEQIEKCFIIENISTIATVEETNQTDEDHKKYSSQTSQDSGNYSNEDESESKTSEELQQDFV
T2 sequence (looked up) 2: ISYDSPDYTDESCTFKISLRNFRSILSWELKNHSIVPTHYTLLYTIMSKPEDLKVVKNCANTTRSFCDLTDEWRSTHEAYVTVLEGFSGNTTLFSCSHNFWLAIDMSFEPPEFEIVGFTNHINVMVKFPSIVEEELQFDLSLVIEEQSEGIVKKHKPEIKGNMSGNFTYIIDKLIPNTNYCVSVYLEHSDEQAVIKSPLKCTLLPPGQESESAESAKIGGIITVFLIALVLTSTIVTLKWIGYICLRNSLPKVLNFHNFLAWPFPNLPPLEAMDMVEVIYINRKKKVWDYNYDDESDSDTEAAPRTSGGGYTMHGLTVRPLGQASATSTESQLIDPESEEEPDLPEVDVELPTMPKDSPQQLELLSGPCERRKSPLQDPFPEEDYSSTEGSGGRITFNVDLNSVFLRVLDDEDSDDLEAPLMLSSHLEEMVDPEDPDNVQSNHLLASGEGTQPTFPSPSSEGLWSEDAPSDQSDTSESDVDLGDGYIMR


What was measured:
[1] = target: T1, IFNAR2/Fc fusion protein (extracellular …); assay: ELISA on captured IFNAR2/Fc; reference of the assay, EC50 not given
[2] = target: T2, type I interferon cell surface receptor …; assay: FACS on Daudi cells, inhibition of EA12 staining; reference of the assay, value not given
[3] = target: T1, IFNAR2/Fc fusion protein (extracellular …); assay: ELISA on IFNAR2/Fc captured by anti-human IgG1 mAb
[4] = target: T1, IFNAR2/Fc fusion protein (extracellular …); assay: ELISA on captured IFNAR2/Fc

Binder	binding result [1]	binding result [2]	binding result [3]	concentration without binding, fold over the w.t. his-IFN-beta EC50 [4] [fold]
histidine tagged wild-type interferon-beta-1a (ligand, also called his IFN-beta; His6-tagged) SGGHHHHHHSSGDDDDKMSYNLLGFLQRSSNFQCQKLLWQLNGRLEYCLKDRMNFDIPEEIKQLQQFQKEDAALTIYEMLQNIFAIFRQDSSSTGWNETIVENLLANVYHQINHLKTVLEEKLEKEDFTRGKLMSSLHLKRYYGRILHYLKAKEYSHCAWTIVRVEILRNFYFINRLTGYLRN	binds	binds	–	–
his tagged-interferon-beta alanine substitution mutant AB1 (ligand, Tested as conditioned medium of EBNA 293 cells) SGGHHHHHHSSGDDDDKMSYNLLGFLQRSSNFQCQKLLWQLNGRAAACAADRMNFDIPEEIKQLQQFQKEDAALTIYEMLQNIFAIFRQDSSSTGWNETIVENLLANVYHQINHLKTVLEEKLEKEDFTRGKLMSSLHLKRYYGRILHYLKAKEYSHCAWTIVRVEILRNFYFINRLTGYLRN	–	–	no binding	> 500
his tagged-interferon-beta alanine substitution mutant A2 (ligand, Tested as conditioned medium of EBNA 293 cells) SGGHHHHHHSSGDDDDKMSYNLLGFLQRSSNAACAALLAALNGRLEYCLKDRMNFDIPEEIKQLQQFQKEDAALTIYEMLQNIFAIFRQDSSSTGWNETIVENLLANVYHQINHLKTVLEEKLEKEDFTRGKLMSSLHLKRYYGRILHYLKAKEYSHCAWTIVRVEILRNFYFINRLTGYLRN	–	–	no binding	500

Results, then the binder that gave them:

binding result [1]	binding result [2]	binding result [3]	concentration without binding, fold over the w.t. his-IFN-beta EC50 [4] [fold]	Binder
–	–	no binding	> 500	his tagged-interferon-beta alanine substitution mutant AB2 (ligand, Tested as conditioned medium of EBNA 293 cells) SGGHHHHHHSSGDDDDKMSYNLLGFLQRSSNFQCQKLLWQLNGRLEYCLKDRAAFAIPAEIKQLQQFQKEDAALTIYEMLQNIFAIFRQDSSSTGWNETIVENLLANVYHQINHLKTVLEEKLEKEDFTRGKLMSSLHLKRYYGRILHYLKAKEYSHCAWTIVRVEILRNFYFINRLTGYLRN
–	–	no binding	> 500	his tagged-interferon-beta alanine substitution mutant E (ligand, Tested as conditioned medium of EBNA 293 cells) SGGHHHHHHSSGDDDDKMSYNLLGFLQRSSNFQCQKLLWQLNGRLEYCLKDRMNFDIPEEIKQLQQFQKEDAALTIYEMLQNIFAIFRQDSSSTGWNETIVENLLANVYHQINHLKTVLEEKLEKEDFTRGKLMSSLHLKRYYGRILHYLKAKEYSHCAWTIVRAEILANFAFIARLTGYLRN
